Data reported in publication PMC3967969 (Molecular Biology of the Cell, 2014).

Biological target: T1, MEI-2, wild type (from MBP-TEV-MEI-2) (C. elegans, UniProt O44740 1-280)
T1 sequence (looked up): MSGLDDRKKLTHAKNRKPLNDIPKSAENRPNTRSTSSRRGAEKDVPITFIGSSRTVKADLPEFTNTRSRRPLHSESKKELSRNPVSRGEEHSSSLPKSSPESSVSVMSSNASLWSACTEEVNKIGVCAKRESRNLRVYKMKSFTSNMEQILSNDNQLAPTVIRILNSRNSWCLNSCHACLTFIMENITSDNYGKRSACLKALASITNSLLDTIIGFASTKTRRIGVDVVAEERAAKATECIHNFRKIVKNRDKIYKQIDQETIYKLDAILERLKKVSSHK
Assay: pull-down

B1: MEI-1 (short isoform), untagged, wild type (enzyme, C. elegans, UniProt P34808 1-472, looked up)
chain: MNGDVQSVIRGYLERAQVAKTMSDAGRWNEAGDLLRQLMTDVKSCKISASNRDEHDARNTFLRALEANLKLVQQNVRDEDDLHEAMTRQSGSPEPPADPDVWSKPSPPLPSSSKFGATKKGVGAAGPRPREISKSTSSMSTNPADVKPANPTQGILPQNSAGDSFDASAYDAYIVQAVRGTMATNTENTMSLDDIIGMHDVKQVLHEAVTLPLLVPEFFQGLRSPWKAMVLAGPPGTGKTLIARAIASESSSTFFTVSSTDLSSKWRGDSEKIVRLLFELARFYAPSIIFIDEIDTLGGQRGNSGEHEASRRVKSEFLVQMDGSQNKFDSRRVFVLAATNIPWELDEALRRRFEKRIFIPLPDIDARKKLIEKSMEGTPKSDEINYDDLAARTEGFSGADVVSLCRTAAINVLRRYDTKSLRGGELTAAMESLKAELVRNIDFEAALQAVSPSAGPDTMLKCKEWCDSFGAM
stoichiometry N: 1 MEI-1:MEI-2
